Several values for one entry are separate records, joined by “and”; a condition that tells them apart may be missing. Equal entries are not always repeated. Ends that are not written are not given here.
What was measured:
[1] = cited from earlier work
Description: Table 1 Amyloid nucleation and stabilization data. | column: Cr (μM) || We also addressed whether the Aβ appendages of these hybrid peptides provide any additional stability to the Q23 amyloid cores, in analogy to the stabilizing effect of HTT^NT on HTT exon1 amyloid. Stabilities were assessed by determining the concentration of monomer present when the amyloid assembly reaction reaches equilibrium (Supplementary Fig. 5)[41]. […] The results (Table 1) indicate some interesting trends.

[2] = Segmental HX-MS of the C-terminal pepsin fragment (35–42/35–40) of mature fibrils; format: physicochemical; details: mature amyloid fibrils, pepsin cleavage between Leu34 and Met35
Excerpt: According to our hypothesis and designs of the peptide models, we expected the Aβ segments of the hybrid peptides to not be involved in amyloid core formation. […] Since the typical α-helix band in FTIR overlaps the characteristic polyQ amyloid band at ∼1,657 cm^−1 (ref. [23]), it is not expected that we might observe any α-helical structure in these fibrils that might be analogous to the HTT^NT α-helix in HTT exon1 fibrils. To address whether a portion of the Aβ segment might be involved in stable β-structure in the fibrils, we used hydrogen–deuterium exchange evaluated by mass spectrometry (HX-MS). […] The absence of a large amount of β-structure within the Aβ segment of the polyQ-Aβ hybrid fibrils is consistent with the total β-structure content of about 50% seen in the CD spectra of the final amyloid suspensions (Figs 2j, 3h and 4j) of peptides containing about 50% Gln residues. […]
All HX-MS data were analysed using an Agilent 1100 series single quadruple ESI mass spectrometer. Aggregates were washed and incubated in D2O and the exchange reactions analysed after an appropriate exchange time. Global HX was analysed by simultaneous dissolution and MS analysis of the exchange reaction using a T-tube front end to the MS[62]; data were not corrected for back-exchange. […]

Aβ42 aggregates = target: T1, Aβ42 aggregates (Homo sapiens, UniProt P05067); assay: Global hydrogen–deuterium exchange mass spectrometry (HX-MS) of aggregates; format: physicochemical; details: for Global HX incorporation: not corrected for back-exchange
T1 construct: purchased Keck Center (Keck Biotechnology Center at Yale University); obtained pre-purified
T1 sequence (P05067 672-713): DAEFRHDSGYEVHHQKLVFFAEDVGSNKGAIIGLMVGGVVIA
Description: All HX-MS data were analysed using an Agilent 1100 series single quadruple ESI mass spectrometer. Aggregates were washed and incubated in D2O and the exchange reactions analysed after an appropriate exchange time. Global HX was analysed by simultaneous dissolution and MS analysis of the exchange reaction using a T-tube front end to the MS[62]; data were not corrected for back-exchange. Segmental exchange was performed as described. Briefly, fibrils were recovered from the exchange reaction by centrifugation (20,800g, 30 min), and in a 4 °C room to 20 μl ice-cold 8 M Gdn.HCl plus 0.1% formic acid was added to the pellets and mixed for 10 s, then 100 μl pepsin agarose (Sigma-Aldrich) in 0.1% cold formic acid was added and mixed for 10 s. The sample was immediately centrifuged to remove the immobilized pepsin (20,800g, 30 s) and the supernatant subjected to 4 °C LC-MS analysis.

[3] = Spontaneous aggregation kinetics by sedimentation-HPLC assay (disappearance of monomer); format: physicochemical; details: 22 μM start, after 35 days, PBS, 37 °C
Description: Disaggregated peptide stock solutions were first checked for approximate concentration. All concentrations, for setting up the reaction and for assaying kinetics time points, were determined from integrated A214 HPLC (Agilent XDB-C18 4.6 × 50 mm column) peaks using standard curves individually constructed for each peptide from standard stock solutions calibrated via the A215 absorption[23][41]. […] Sodium azide was added to 0.05% (w/v) and pH adjusted to 7.4. After filtration through a 0.2 μm filter unit (Anotop 10) to get rid of aggregates, the solution was held at 4 °C while the t=0 concentration was determined (∼30 min). The reaction mixture was moved to 37 °C and kinetics monitored by the sedimentation and ThT assays on reaction aliquots and by CD.
Duplicate time points were removed periodically, centrifuged 30 min at 436,000g followed by HPLC analysis of monomer concentration from the carefully removed supernatant[41].
For sedimentation and ThT kinetics, as well as kinetics underlying the n* and Cr determinations and inhibition kinetics studies, each plotted data point is derived from analysis of 2–3 independent reaction aliquots. Each aggregation study was independently carried out twice, with similar results obtained.

Q: For “Aβ40: full-length Aβ peptide ending at residue 40”, which Cr of fibrils [1] is on record?
A: The Cr of fibrils was 1.06 ± 0.18 µM.

Q: What about the “Exchange of the C-terminal 35–42/35–40 fragment after exposure of fibrils to D2O” value [2] of the same substance?
A: Its value is “essentially fully exchanged”.

Q: For “Aβ42: full-length Aβ peptide ending at residue 42”, which “Global HX incorporation” value (Aβ42 aggregates; Aβ42 aggregated alone) is on record?
A: Its value is 14.8±1.2 deuteriums.

Q: And the “Global HX incorporation” value (Aβ42 aggregates; Aβ42 aggregates grown in the presence of K10G2Aβ31–42)?
A: The value was 25.6±1.2 deuteriums.

Q: And the “Newly unprotected amide hydrogens” value (Aβ42 aggregates; Aβ42 aggregates grown with K10G2Aβ31–42 vs Aβ42 alone)?
A: The value was ~11.

Q: And the Cr of fibrils [1]?
A: The Cr of fibrils was 0.11 ± 0.01 µM and 0.11 µM.

Q: And the “Exchange of the C-terminal 35–42/35–40 fragment after exposure of fibrils to D2O” value [2]?
A: The value was “resists exchange”.

Q: Which fraction of reaction mixture sedimentable at early time does the source give for “H-KKQQQQQQQQQQQQQQQQQQQQQQQKKAIIGLMVGGVVIA-OH” here?
A: The fraction of reaction mixture sedimentable at early time was 15%.

Q: For KKKKKKKKKKGGIIGLMVGGVVIA [K10G2Aβ31–42], which “Monomer remaining in the reaction mixture” value [3] is on record?
A: Its value is ~13 µM.
